3 substances from US20140193401A1 can be followed below.

Experiment [1] concerns the target PTx-S1-220 R79A (Bordetella pertussis) (UniProt P04977).
For experiment [2] the target is unchanged. Description: ELISA, hu1B7 as primary antibody; EC50 as percent of the PTx reference.
Experiment [3] deals with PTx-S1E (residues 1-220, D34E, S162P, I198M) (Bordetella pertussis) (UniProt Q7WDU8). The experiment can be described thus: SPR (BIAcore 3000), mAb 1B7 immobilised on CM5 chip, toxin injected.
For experiment [4], the target named is pertussis toxin holotoxin (Bordetella pertussis) (UniProt P04977). The experiment can be described thus: cell-based or functional assay.
The target is the same in experiment [5]. Description: competition ELISA (Friguet), 5 nM antibody with PT in solution, coated PT.

With “hu1B7 scAb (humanized 1B7 single-chain Fv with C-terminal human kappa constant domain) (scFv)”, in experiment [1], the % EC50 PTx worked out at 1%. This substance also returned a % EC50 PTX in experiment [2] of 1%.
As to murine monoclonal antibody 1B7, the koff in experiment [3] is 0.0018 s⁻¹.
Take murine monoclonal antibody 11E6: the In Vitro Neutralization (nM), minimum protective concentration, CHO clustering assay in experiment [4] was 5.2 nM. In experiment [5], this substance displayed a Kd of 20 nM.
